Assay results: paper PMC8270467, “A MYB4-MAN3-Mannose-MNB1 signaling cascade regulates cadmium tolerance in Arabidopsis”

B1: ProMAN3 P3 probe (dsDNA)
DNA 1: CAAATCATATAGTTTGGTGACTGATTTCAA
DNA 2: TTGAAATCAGTCACCAAACTATATGATTTG
B2: ProMAN3 P2 probe (dsDNA)
DNA 1: AAGATGGGTTTGCTTGGTGAGACCACAAGA
DNA 2: TCTTGTGGTCTCACCAAGCAAACCCATCTT
B3: ProMAN3 P1 probe (dsDNA)
DNA 1: GGTTTACAAATCAACAACCACTGAACTTTT
DNA 2: AAAAGTTCAGTGGTTGTTGATTTGTAAACC
B4: ProMAN3 P4 probe (dsDNA)
DNA 1: AGTTAGTCAATGAACGGTTTTCAAATAAAG
DNA 2: CTTTATTTGAAAACCGTTCATTGACTAACT

target: MYB4-MBP (Arabidopsis thaliana, UniProt Q9SZP1 1-282); assay: EMSA; LightShift Chemiluminescent EMSA Kit (Thermo), manufacturer's protocol; buffer, salt, pH and temperature not stated; settings: protein: recombinant; tags: MBP; label: 3' biotin on sense strand; blunt
Sequence (Q9SZP1 whole entry): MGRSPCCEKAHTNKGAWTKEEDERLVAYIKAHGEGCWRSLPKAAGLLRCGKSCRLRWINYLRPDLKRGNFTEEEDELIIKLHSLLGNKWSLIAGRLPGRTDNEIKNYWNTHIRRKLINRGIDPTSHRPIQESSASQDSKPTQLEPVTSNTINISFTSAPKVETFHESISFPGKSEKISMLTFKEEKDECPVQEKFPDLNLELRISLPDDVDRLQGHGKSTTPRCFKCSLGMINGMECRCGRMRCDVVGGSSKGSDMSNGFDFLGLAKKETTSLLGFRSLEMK

Binding result, binds:
B1
B2
B3
B4
